Broadly, the stoichiometry N is the number of molecules, sites or subunits per partner or assembly.

Bridges are numbered along the chain shown (N, C = ends). Where no end group is shown, it is not given here.

This series concerns the molecule itself. Kind of series: SEC; size exclusion chromatography in the purification of the WW domain; column and buffer not shown (SI). Background: In gel filtration, larger molecules generally elute earlier.

B1: WW domain of polyglutamine tract-binding protein 1 (PQBP1), Y65C mutant, 37 amino acid construct (domain or fragment, human, UniProt O60828 47-83, looked up)
chain: GLPPSWYKVFDPSCGLPYCWNADTDLVSWLSPHDPNS
modifications: disulfide 14-19 (inferred); not fully specified
notes: the mutation causes Golabi-Ito-Hall syndrome; also called Y65C WW domain; WW Y65C; source: purified by size exclusion chromatography
As for B1, the “stoichiometry N” value amounted to 2.

(Values after article PMC4960638, “Changes in the folding landscape of the WW domain provide a molecular mechanism for an inherited genetic syndrome” (Scientific Reports, 2016).)
